Reference: US20230357386A1 (EISAI R AND D MANAGEMENT, published 2023)
Where a chain is given by its changes, count along the chain named.

Key:
[1] = molecular target: T1, human EphA4 extracellular domain-SEAP-His protein (human); assay: SPR (Biacore T200): human EphA4 extracellular domain-SEAP-His10 captured by anti-His antibody on CM5, antibody as analyte 1.6-100 nM, 1:1 fit
T1 construct: also called Human EphA4 extracellular domain-SEAP-His10
Description: (§1) The binding affinity of the antibody A and the antibody B to human EphA4 was determined by surface plasmon resonance (SPR) using Biacore T200 (Cytiva). First, an anti-His antibody (Cytiva, 28-9950-56) was immobilized on sensor chip CM5. The immobilization was performed by the amine coupling method using N-hydroxysuccinimide (NHS) and N-ethyl-N′-(3-dimethylaminopropyl)carbodiimide hydrochloride (EDC). Ethanolamine was used in blocking (the sensor chip and the reagents for immobilizations were all manufactured by Cytiva). The antibody was diluted with a buffer solution for immobilization (10 mM sodium acetate, pH 4.5) into 3 µg/mL and immobilized on the sensor chip according to the protocol attached to Biacore T200. Human EphA4 extracellular domain-SEAP-His10 was diluted with a running buffer solution HBS-EP+ (Cytiva, BR-1001-69), injected onto a flow cell for 120 seconds, and captured (amount of the antibody captured: approximately 6 RU). Subsequently, the antibody A or the antibody B serially diluted in the range of 100, 50, 25, 12.5, 6.3, 3.2, 1.6, and 0 nM using HBS-EP+ was added to the sensor chip for 120 seconds. Binding reaction curves were sequentially observed at the time of the addition (association phase, 120 sec) and after the completion of the addition (dissociation phase, 600 sec). After the completion of each observation, the sensor chip was regenerated by the addition of 3 M MgCl₂ (60 sec). The obtained binding reaction curves were subjected to fitting analysis using 1:1 binding models and software BIA evaluation attached to the system to calculate the binding affinity (KD = kd / ka) to human EphA4. The experiment mentioned above was carried out three times, and an average value of each parameter was calculated.

[2] = molecular target: T1, human EphA4 extracellular …; assay: competition ELISA, captured human EphA4 ECD-SEAP-His; competitor biotinylated human Ephrin A5-Fc (0.7 nM)
Description: (§2) The antibody A and the antibody B were evaluated for their inhibitory activity against the binding between human EphA4 and its human ligand according to the following steps. Each well of a 96-well plate (Nunc) was coated with an anti-alkaline phosphatase antibody (Thermo Fisher Scientific Inc.). After incubation overnight at 4° C., each well was blocked with 1% BlockAce (KAC Co., Ltd.) overnight at 4° C. After washing with 0.02% Tween 20/PBS three times, the human EphA4 extracellular domain-SEAP-His protein (final concentration: 10 nM) was seeded in each well and incubated at room temperature for 1 hour. After washing three times, ligands and serially diluted antibody A or antibody B (0, 0.003, 0.01, 0.03, 0.1, 0.3, 1, 3, 10, 30, 100, 300, 1000, and 3000 nM) were added to each well. The ligands used were biotinylated human Ephrin A5-Fc chimera (R&D Systems, Inc., final concentration: 0.7 nM) and biotinylated human Ephrin B3-Fc chimera (R&D Systems, Inc., final concentration: 2.3 nM). After incubation at room temperature for 1 hour and subsequent washing three times, a horseradish peroxidase-labeled streptavidin (GE Healthcare Japan Corp.) was added thereto and incubated at room temperature for 1 hour. […] The absorbance at 450 nm was read using a microplate reader (Thermo Fisher Scientific Inc.).

[3] = molecular target: T1, human EphA4 extracellular …; assay: ELISA: human EphA4 extracellular domain-SEAP-His captured by anti-6-His antibody, detection with HRP anti-human IgG Fc
Description: (§3) The antibody A and the antibody B were evaluated for their binding activity against each EphA4 according to the following steps. Each well of a 96-well plate (Nunc) was coated with a rabbit anti-6-His antibody (Bethyl Laboratories, Inc.). After incubation at room temperature for 1 hour, each well was blocked with 1% BlockAce (KAC Co., Ltd.) overnight at 4° C. After washing with 0.02% Tween 20/PBS three times, each of the mouse, rat, monkey and human EphA4 extracellular domain-SEAP-His proteins (final concentration: 1 nM) was seeded in each well and incubated at room temperature for 1 hour. After washing three times, the antibody A or the antibody B (0, 0.00013, 0.00064, 0.0032, 0.016, 0.08, 0.4, 2, and 10 µg/mL) was added to each well and incubated at room temperature for 1 hour. After washing three times, a horseradish peroxidase-labeled rabbit anti-human IgG Fcy fragment antibody (Jackson ImmunoResearch Laboratories, Inc.) was added thereto and incubated at room temperature for 1 hour. After washing three times, a TMBZ (3,3′,5,5′-tetramethylbenzidine, Kirkegaard & Perry Laboratories, Inc.) solution was added to each well. An equal amount of a reaction stopping solution (2 N H₂SO₄, FUJIFILM Wako Pure Chemical Corp.) was added to each well. The absorbance at 450 nm was read using a microplate reader (Thermo Fisher Scientific Inc.).

[4] = molecular target: human EphA4 fibronectin type III domain 1-MBP-His protein (human, UniProt P54764 326-439; P0AEX9 29-392 = MBP); assay: ELISA, domain-MBP-His captured by anti-6-His antibody
Description: (§4) The antibody A, the antibody B, and human IgG (Sigma-Aldrich Co. LLC) were evaluated for their binding activity against each EphA4 according to the following steps. Each well of a 96-well plate (Nunc) was coated with a rabbit anti-6-His antibody (Bethyl Laboratories, Inc.). After incubation at room temperature for 1 hour, each well was blocked with 1% BlockAce (KAC Co., Ltd.) overnight at 4° C. After washing with 0.02% Tween 20/PBS three times, each of the human EphA4 extracellular domain-, human EphA4 ligand-binding domain-, human EphA4 fibronectin type III domain 1-, and human EphA4 fibronectin type III domain 2-MBP-His proteins or the MBP-His protein (final concentration: 1 nM) was seeded in each well and incubated at room temperature for 1 hour. After washing three times, the antibody A, the antibody B, or human IgG (10 nM) was added to each well and incubated at room temperature for 1 hour. After washing three times, a horseradish peroxidase-labeled rabbit anti-human IgG Fcy fragment antibody (Jackson ImmunoResearch Laboratories, Inc.) was added thereto and incubated at room temperature for 1 hour. After washing three times, a TMBZ (3,3′,5,5′-tetramethylbenzidine, Kirkegaard & Perry Laboratories, Inc.) solution was added to each well. An equal amount of a reaction stopping solution (2 N H₂SO₄, FUJIFILM Wako Pure Chemical Corp.) was added to each well. The absorbance at 450 nm and 650 nm was read using a microplate reader (Thermo Fisher Scientific Inc.).

[5] = molecular target: human EphA4 fibronectin type III domain 2-MBP-His protein (human, UniProt P54764 436-547; P0AEX9 29-392 = MBP); assay: as above
Description: as §4

[6] = molecular target: T2, rat EphA4 extracellular domain-SEAP-His protein (rat, UniProt Q03137 20-547 (mouse entry)); assay: ELISA: rat EphA4 extracellular domain-SEAP-His captured by anti-6-His antibody, detection with HRP anti-human IgG Fc
T2 construct: not shown: SEAP and histidine tag
Description: as §3

[7] = molecular target: T1, human EphA4 extracellular …; assay: SPR (Biacore T200), EphA4 ECD-SEAP-His10 captured by anti-His antibody, antibody as analyte, 1:1 model, mean of three runs
Description: as §1, with “Binding reaction curves were sequentially observed at the time of the addition (association phase, 120 sec) and after the completion of the addition (dissociation phase, 600 sec). After the completion of each observation, the sensor chip was regenerated by the addition of 3 M MgCl₂ (60 sec). The obtained binding reaction curves were subjected to fitting analysis using 1:1 binding models and software BIA evaluation attached to the system to calculate the binding affinity (KD = kd / ka) to human EphA4.” left out

[8] = molecular target: T3, human EphA4 extracellular domain-MBP-His protein (human); assay: ELISA, domain-MBP-His captured by anti-6-His antibody, antibody 10 nM
T3 construct: also called human EphA4 extracellular domain (ECD); ECD
Description: as §4, with “An equal amount of a reaction stopping solution (2 N H₂SO₄, FUJIFILM Wako Pure Chemical Corp.) was added to each well.” left out

[9] = molecular target: T4, mouse EphA4 extracellular domain-SEAP-His protein (mouse, UniProt Q03137 20-547); assay: ELISA: mouse EphA4 extracellular domain-SEAP-His captured by anti-6-His antibody, detection with HRP anti-human IgG Fc
T4 construct: not shown: SEAP and histidine tag
Description: as §3

[10] = molecular target: T5, monkey EphA4 extracellular domain-SEAP-His protein (monkey); assay: ELISA: monkey EphA4 extracellular domain-SEAP-His captured by anti-6-His antibody, detection with HRP anti-human IgG Fc
T5 construct: not shown: SEAP and histidine tag
T5 sequence (chain, as listed by the source): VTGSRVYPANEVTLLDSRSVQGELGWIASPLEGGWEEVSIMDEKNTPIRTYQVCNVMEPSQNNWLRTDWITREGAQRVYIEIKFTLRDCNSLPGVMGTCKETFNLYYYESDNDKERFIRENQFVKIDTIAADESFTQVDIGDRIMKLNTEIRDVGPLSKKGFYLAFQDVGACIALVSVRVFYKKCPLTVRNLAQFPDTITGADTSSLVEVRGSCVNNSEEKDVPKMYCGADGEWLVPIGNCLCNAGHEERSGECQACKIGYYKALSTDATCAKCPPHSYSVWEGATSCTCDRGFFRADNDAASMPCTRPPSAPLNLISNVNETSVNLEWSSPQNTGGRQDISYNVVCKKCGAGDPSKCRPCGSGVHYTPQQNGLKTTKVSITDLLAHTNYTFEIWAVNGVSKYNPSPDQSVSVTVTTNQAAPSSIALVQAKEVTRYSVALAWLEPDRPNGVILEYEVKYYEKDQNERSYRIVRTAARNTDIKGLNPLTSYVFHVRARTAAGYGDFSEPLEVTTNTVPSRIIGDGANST
Description: as §3

[11] = molecular target: T1, human EphA4 extracellular …; assay: competition ELISA, captured human EphA4 ECD-SEAP-His; competitor biotinylated human Ephrin B3-Fc (2.3 nM)
Description: as §2

T1 sequence (chain, as listed by the source limits assumed): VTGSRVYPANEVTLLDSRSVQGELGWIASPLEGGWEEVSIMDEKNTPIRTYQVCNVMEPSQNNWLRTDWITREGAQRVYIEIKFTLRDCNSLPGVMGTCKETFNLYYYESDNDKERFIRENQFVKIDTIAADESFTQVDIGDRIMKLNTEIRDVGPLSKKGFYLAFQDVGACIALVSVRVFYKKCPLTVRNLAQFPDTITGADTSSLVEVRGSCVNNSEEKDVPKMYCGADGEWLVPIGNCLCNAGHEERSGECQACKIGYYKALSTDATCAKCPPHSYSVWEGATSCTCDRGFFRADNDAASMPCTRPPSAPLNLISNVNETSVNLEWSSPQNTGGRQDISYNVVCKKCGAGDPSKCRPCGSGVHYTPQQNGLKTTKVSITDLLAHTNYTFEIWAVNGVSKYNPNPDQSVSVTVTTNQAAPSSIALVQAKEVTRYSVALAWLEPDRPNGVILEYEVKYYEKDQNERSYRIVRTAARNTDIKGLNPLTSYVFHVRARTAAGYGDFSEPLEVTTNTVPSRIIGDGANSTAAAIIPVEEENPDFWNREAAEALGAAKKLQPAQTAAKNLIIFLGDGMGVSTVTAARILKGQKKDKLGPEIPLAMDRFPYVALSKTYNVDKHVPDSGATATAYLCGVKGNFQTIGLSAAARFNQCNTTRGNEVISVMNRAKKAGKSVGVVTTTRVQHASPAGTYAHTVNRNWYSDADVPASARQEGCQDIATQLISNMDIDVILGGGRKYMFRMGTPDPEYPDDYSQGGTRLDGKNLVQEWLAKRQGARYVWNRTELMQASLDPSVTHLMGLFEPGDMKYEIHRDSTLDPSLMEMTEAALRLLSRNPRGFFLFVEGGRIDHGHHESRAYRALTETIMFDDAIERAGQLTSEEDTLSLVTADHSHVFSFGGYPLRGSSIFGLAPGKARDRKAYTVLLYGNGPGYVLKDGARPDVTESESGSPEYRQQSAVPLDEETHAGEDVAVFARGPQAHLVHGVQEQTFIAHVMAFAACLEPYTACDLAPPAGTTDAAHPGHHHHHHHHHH

B1: antibody A (human anti-EphA4 monoclonal antibody) (antibody, V domains shown)
VH: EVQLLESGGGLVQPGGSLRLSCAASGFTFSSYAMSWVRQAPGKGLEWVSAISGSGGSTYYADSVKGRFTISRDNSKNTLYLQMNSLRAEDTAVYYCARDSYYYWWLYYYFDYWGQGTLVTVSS
VL: SSELTQDPAVSVALGQTVRITCQGDSLRSYYASWYQQKPGQAPVLVIYGKNNRPSGIPDRFSGSSSGNTASLTITGAQAEDEADYYCQSSYSSSYSYVFGGGTKLTVLG
notes: Human IgG2 / lambda, from a phage library scFv converted to IgG; made in Expi293F or CHOK1SV cells
- koff [1]: 0.000251 s⁻¹
- kon [1]: 537000 M⁻¹ s⁻¹
- IC50 [2]: 3.9 nM
- EC50 (read off the curve) [3]: ~0.02 nM
- binding result [4]: no binding (tested: 10 nM)
- binding result [5]: no binding (tested: 10 nM)
- EC50 (read off the curve) [6]: ~0.02 nM
- Kd [7]: 0.467 nM
- binding result [8]: binds
- EC50 (read off the curve) [9]: ~0.02 nM
- EC50 (read off the curve) [10]: ~0.02 nM
- IC50 [11]: 3 nM

B2: antibody B (human anti-EphA4 monoclonal antibody) (antibody, human IgG1, lambda, V domains shown)
VH: EVQLLESGGGLVQPGGSLRLSCAASGFTFSSFAMSWVRQAPGKGLEWVSAISGSGGSTYYADSVKGRFTISRDNSKNTLYLQMNSLRAEDTAVYYCARDDYYPYWWYYYYFDYWGQGTLVTVSS
VL: B1 VL with Y31F
notes: Human IgG1/2 (IgG1 CH1 and hinge, IgG2 CH2 and CH3) / lambda; made in Expi293F or CHOK1SV cells
- koff [1]: 8.01e-05 s⁻¹
- kon [1]: 512000 M⁻¹ s⁻¹
- IC50 [2]: 4.8 nM
- EC50 (read off the curve) [3]: ~0.04 nM
- binding result [4]: no binding (tested: 10 nM)
- binding result [5]: no binding (tested: 10 nM)
- EC50 (read off the curve) [6]: ~0.04 nM
- Kd [7]: 0.156 nM
- binding result [8]: binds
- EC50 (read off the curve) [9]: ~0.04 nM
- EC50 (read off the curve) [10]: ~0.04 nM
- IC50 [11]: 4.1 nM
